Sequences and labels used below:
B1: Hammerhead Ribozyme (parent)
chain: ACCGGAUGUGCUUUCCGGUCUGAUGAGUCCGUGAGGACGAAACAG

Our source for the self-cleavage values is the RNAGym collection of RNA variant scans (doi:10.7554/elife.80360).

In this data set the parent is B1. Briefly: self-cleavage, relative activity (ratio to wild type); higher = more cleavage; co-transcriptional.
With A34G A37U, the self-cleavage worked out at 0.47.

As to A34G A37G, the self-cleavage amounted to 0.649. The result for G33C G35A reads 0.701. The same measure for G33C G35U: 0.795; for G33C G35C: 0.858; for G33U C43A: 0.466. With G33U C43G, the self-cleavage worked out at 0.449.

For the variant G33U C43U, the self-cleavage was determined as 0.598. The result for A34C A41G reads 0.367; that for A34C A41U, 0.363. The same measure for A34C A41C: 0.354; for G35A G36C: 0.484; for G35A G36A: 0.508.

With G35A G36U, the self-cleavage came to 0.427. The result for G35C A44U reads 0.465; that for G35C A44C, 0.42; that for G35C A44G, 0.692.

On to G33C A41C, for which the self-cleavage is 0.432. The same measure for G33C A41G: 0.273. The result for G33C A41U reads 0.459. Consider U32G A44G, for which the self-cleavage came out at 0.898. The result for U32G A44C reads 0.424; that for U32G A44U, 0.477. The result for A34C G45U reads 0.515; that for A34C G45C, 0.441; that for A34C G45A, 0.524. Turning to G33A A34U, the self-cleavage was 0.873. Regarding G33A A34C, the self-cleavage came to 1. As to G33A A34G, the self-cleavage worked out at 0.484. The same measure for A34G A41U: 0.284; for A34G A41C: 0.302. The same measure for A34G A41G: 0.339; for A34G C43G: 0.471.

For the variant A34G C43U, the self-cleavage was 0.393. The result for A34G C43A reads 0.32; that for G33A A42G, 0.256; that for G33A A42C, 0.394. The same measure for G33A A42U: 0.27; for A34G G39C: 0.338. The result for A34G G39U reads 0.308; that for A34G G39A, 0.288.

U32G A37U: the self-cleavage amounted to 0.46. The same measure for U32G A37G: 0.448; for U32G A37C: 0.431. The same measure for G33C A34U: 1.33.

As to G33C A34G, the self-cleavage is 1.19.

Consider G33C A34C, for which the self-cleavage was found to be 0.801. Consider U32C A44G, for which the self-cleavage came to 1.32. Regarding U32C A44C, the self-cleavage was found to be 0.678. The result for U32C A44U reads 0.359. The result for A34C A44U reads 0.512; that for A34C A44G, 0.727. The result for A34C A44C reads 0.341; that for A34C A37C, 0.426; that for A34C A37G, 0.588. On to A34C A37U, for which the self-cleavage was determined as 0.444.

Consider A34C G36A, for which the self-cleavage is 0.345. The result for A34C G36U reads 0.437; that for A34C G36C, 0.419. The result for U32G G36C reads 0.464; that for U32G G36U, 0.398.

As for U32G G36A, the self-cleavage came out at 0.556. As for A34U G35A, the self-cleavage was 0.638. The same measure for A34U G35U: 0.584; for A34U G35C: 0.631; for G33U A37C: 1.04. The result for G33U A37G reads 1.04; that for G33U A37U, 0.972; that for G33C G39U, 0.364. Consider G33C G39A, for which the self-cleavage came out at 0.332. The same measure for G33C G39C: 0.375; for U32C C43G: 0.388; for U32C C43U: 0.661.

Consider U32C C43A, for which the self-cleavage was found to be 0.315. The result for G33U A42U reads 0.371; that for G33U A42C, 0.366. The result for G33U A42G reads 0.312. The same measure for A34U C38G: 0.403; for A34U C38U: 0.799; for A34U C38A: 0.409. For U32C C38A, the self-cleavage amounted to 0.691. The result for U32C C38U reads 0.726; that for U32C C38G, 0.691. As for U32C G39C, the self-cleavage is 0.375.

As for U32C G39U, the self-cleavage worked out at 0.369. On to U32C G39A, for which the self-cleavage worked out at 0.317. The result for G33U A44U reads 0.87; that for G33U A44C, 0.596. The same measure for G33U A44G: 1.44; for G33A A41U: 0.428. As to G33A A41C, the self-cleavage was 0.465.

As for G33A A41G, the self-cleavage was 0.384. The result for U32G G45A reads 0.56; that for U32G G45U, 0.587; that for U32G G45C, 0.712. The result for G35A A40U reads 0.317. Turning to G35A A40C, the self-cleavage worked out at 0.435. The same measure for G35A A40G: 0.37; for A34C C43G: 0.327. The same measure for A34C C43A: 0.309; for A34C C43U: 0.287. Regarding G33C A44C, the self-cleavage was 0.533. The result for G33C A44G reads 1.13; that for G33C A44U, 0.512. The same measure for A34C C38U: 0.758; for A34C C38G: 0.436. The result for A34C C38A reads 0.472; that for G33U G36A, 0.765.

In the case of G33U G36C, the self-cleavage is 0.623.

Consider G33U G36U, for which the self-cleavage was found to be 0.618. Take A34U A41C: the self-cleavage was determined as 0.289.

In the case of A34U A41G, the self-cleavage is 0.305.

Regarding A34U A41U, the self-cleavage is 0.281. The same measure for A34G A42C: 0.294; for A34G A42U: 0.329; for A34G A42G: 0.264. The result for A34U reads 0.926; that for A34G, 0.902.

Take A34C: the self-cleavage was found to be 0.909. The result for A34U G39A reads 0.288. The result for A34U G39U reads 0.356; that for A34U G39C, 0.351; that for G33U A41C, 0.375. As for G33U A41G, the self-cleavage worked out at 0.354.

In the case of G33U A41U, the self-cleavage was 0.361. The same measure for U32C A42U: 0.366; for U32C A42G: 0.364.

Take U32C A42C: the self-cleavage amounted to 0.316. On to A34G A44C, for which the self-cleavage is 0.41.

For the variant A34G A44G, the self-cleavage is 1.23. The result for A34G A44U reads 0.526; that for A34U C43U, 0.304. The result for A34U C43G reads 0.315; that for A34U C43A, 0.393. The result for A34C A42G reads 0.254; that for A34C A42C, 0.397; that for A34C A42U, 0.322. For U32C G35U, the self-cleavage worked out at 0.795. U32C G35C: the self-cleavage worked out at 0.647. The result for U32C G35A reads 0.83; that for G33A C43A, 0.369. Regarding G33A C43G, the self-cleavage worked out at 0.371. The same measure for G33A C43U: 0.816.

Consider G35C A40G, for which the self-cleavage came out at 0.28. Turning to G35C A40U, the self-cleavage was 0.296. The same measure for G35C A40C: 0.466; for A34C A40C: 0.316. The result for A34C A40G reads 0.334. Turning to A34C A40U, the self-cleavage was 0.419. U32G: the self-cleavage is 0.769.

For G35A, the self-cleavage came to 0.798. The same measure for G35C: 0.791. The same measure for A34G C38U: 1.13.

In the case of A34G C38G, the self-cleavage came to 0.598. The same measure for A34G C38A: 0.349; for G33U G45C: 0.752. The result for G33U G45A reads 0.698; that for G33U G45U, 0.912. The result for A34C G39A reads 0.288; that for A34C G39U, 0.404. Consider A34C G39C, for which the self-cleavage worked out at 0.32. The result for U32G A40C reads 0.372; that for U32G A40G, 0.342; that for U32G A40U, 0.39.

Regarding G33A G39U, the self-cleavage turned out to be 0.344.

As for G33A G39A, the self-cleavage amounted to 0.429. The same measure for G33A G39C: 0.503.
